Experimental findings from article doi:10.1101/2020.10.11.334888 (bioRxiv, 2020) are described below.

Series [1] deals with the molecule itself. Nature of the series: cryo-EM structure.
Series [2] deals with the molecule itself. As to the kind of experiment: negative-stain EM.
Series [3] concerns the molecule itself. As to the kind of experiment: electron microscopy of purified hook-basal bodies.
Series [4] deals with the molecule itself. Nature of the series: cryo-EM structure. This is another data set of the same source.

Numbering of substitutions follows the chain as printed. Numbers in names are those of the source. Where two headings read alike, the source gives them in different places.

B1: FliF in the native flagellar basal body (native MS ring) (natural protein)
chain: MSATASTATQPKPLEWLNRLRANPRIPLIVAGSAAVAIVVAMVLWAKTPDYRTLFSNLSDQDGGAIVAQLTQMNIPYRFANGSGAIEVPADKVHELRLRLAQQGLPKGGAVGFELLDQEKFGISQFSEQVNYQRALEGELARTIETLGPVKSARVHLAMPKPSLFVREQKSPSASVTVTLEPGRALDEGQISAVVHLVSSAVAGLPPGNVTLVDQSGHLLTQSNTSGRDLNDAQLKFANDVESRIQRRIEAILSPIVGNGNVHAQVTAQLDFANKEQTEEHYSPNGDASKATLRSRQLNISEQVGAGYPGGVPGALSNQPAPPNEAPIATPPTNQQNAQNTPQTSTSTNSNSAGPRSTQRNETSNYEVDRTIRHTKMNVGDIERLSVAVVVNYKTLADGKPLPLTADQMKQIEDLTREAMGFSDKRGDTLNVVNSPFSAVDNTGGELPFWQQQSFIDQLLAAGRWLLVLVVAWILWRKAVRPQLTRRVEEAKAAQEQAQVRQETEEAVEVRLSKDEQLQQRRANQRLGAEVMSQRIREMSDNDPRVVALVIRQWMSNDHE
As to B1, in series [1], the stoichiometry N (commonly the number of molecules, sites or subunits per partner or assembly) worked out at 34.

B2: FliF(I252A), overexpressed in E. coli (natural protein)
chain: B1 chain with I252A
As to B2, the binding result in series [2] was “binds”.

B3: FliF(V266R), overexpressed in E. coli (natural protein)
chain: B1 chain with V266R
On to B3, for which the binding result in series [2] is given as “binds”.

B4: FliF(L253A), overexpressed in E. coli (natural protein)
chain: B1 chain with L253A
B4: the binding result in series [2] is listed as “binds”.

B5: FliF(L253R), overexpressed in E. coli (natural protein)
chain: B1 chain with L253R
In the case of B5, the binding result in series [2] is recorded as “binds”.

B6: FliF(L253A) expressed from pMMiF004 in Salmonella TH12415 (ΔfliF) (natural protein)
chain: B1 chain with L253A
In the case of B6, the binding result in series [3] is given as “binds”.

B7: full-length Salmonella FliF (MS ring), overexpressed from pKOT112 (data set 1) (natural protein)
chain: B1 chain
With B7, the “stoichiometry N” value in series [4] is 34.

B8: FliF(I252R), overexpressed in E. coli (natural protein)
chain: B1 chain with I252R
Consider B8, for which, in series [2], the binding result was “binds”.

B9: FliF(I252A) expressed from pMMiF002 in Salmonella TH12415 (ΔfliF) (natural protein)
chain: B1 chain with I252A
On to B9, for which the binding result in series [3] is given as “binds”.

B10: FliF(V266A), overexpressed in E. coli (natural protein)
chain: B1 chain with V266A
For B10, the binding result in series [2] is reported as “binds”.

B11: full-length Salmonella FliF (MS ring), overexpressed from pKOT105 (data set 2) (natural protein)
chain: B1 chain
Consider B11, for which, in series [4], the “stoichiometry N” value was 34.
